Values of other authors in paper PMC12192639.

Tests used:
[1] = molecular target: SSB C-terminal peptide last eight amino acids (Escherichia coli) (UniProt P0AGE0)
RecO (Escherichia coli) = RecO (Escherichia coli) (UniProt B1XB39)

UniProt P0AGE0, sequence (P0AGE0 whole entry, looked up): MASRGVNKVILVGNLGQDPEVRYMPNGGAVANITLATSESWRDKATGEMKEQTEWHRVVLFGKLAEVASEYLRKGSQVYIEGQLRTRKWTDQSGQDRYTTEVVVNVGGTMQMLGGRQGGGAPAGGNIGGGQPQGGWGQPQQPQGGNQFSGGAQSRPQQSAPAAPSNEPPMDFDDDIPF

Kd (RecO (Escherichia coli))	Substance	Kd [1]
	RecO (from UniProt B1XB39)	150 nM
126 nM	RecR (from UniProt C4ZUS6)	
